Assay [1] deals with T1, human FRα on cells (human, UniProt P15328 25-234).
T1 construct: whole, on cells; also called FOLR1; FRα on transfected HEK293-6e or CHO-S cells
Briefly: flow cytometry on IGROV-1 cells (endogenous FRα), apparent Kd. (In general: Flow cytometry measures light scatter and fluorescence of single cells or particles in a stream.)

For assay [2], the target named is T1, human FRα on cells. The experiment in a line: cell-based or functional assay.

T1 sequence (P15328 25-234): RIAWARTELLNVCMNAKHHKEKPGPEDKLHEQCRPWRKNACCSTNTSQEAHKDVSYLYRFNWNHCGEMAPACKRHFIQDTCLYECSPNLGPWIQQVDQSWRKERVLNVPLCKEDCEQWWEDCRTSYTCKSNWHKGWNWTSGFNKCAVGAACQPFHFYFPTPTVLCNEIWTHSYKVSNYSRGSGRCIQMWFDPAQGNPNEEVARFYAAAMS

B1: mirvetuximab (v17716) (antibody, V domains shown)
VH: QVQLVQSGAEVVKPGASVKISCKASGYTFTGYFMNWVKQSPGQSLEWIGRIHPYDGDTFYNQKFQGKATLTVDKSSNTAHMELLSLTSEDFAVYYCTRYDGSRAMDYWGQGTTVTVSS
VL: DIVLTQSPLSLAVSLGQPAIISCKASQSVSFAGTSLMHWYHQKPGQQPRLLIYRASNLEAGVPDRFSGSGSKTDFTLTISPVEAEDAATYYCQQSREYPYTFGGGTKLEIK
As for B1, the Kd with human FRα on cells [1] stood at 0.69 nM. Also, the “internalized fluorescence relative to v30384, 25 nM, 5-hour incubation, IGROV-1 cells” value in the assay with human FRα on cells [2] was found to be 0.5 fold.

Values taken from patent EP4499697A1 (dated 2025).
